Key:
[1] = Iron-binding capacity of lipocalin allergens (quenching of autofluorescence); details: 2 μM allergen, 50UM siderophore (2,3, Dihydroxybenzoic Acid), iron III 0 to 50 μM; excitation/emission 280 and 340
Method: In this assay, 2 μM of allergen (in the example BLG) and 50UM of siderophores like 2,3, Dihydroxybenzoic Acid are incubated with increasing concentrations of iron III (Fe3+) ranging from 0 to 50 μM (x-axis in FIG. 5). Quenching of autofluorescence is measured at excitation and emission wavelengths of […] respectively in endpoint mode (y-axis in FIG. 5).

[2] = tested on: CD3+ cells of PMA-activated PBMCs; experiment: CD4/CD8 expression and survival of PMA-activated PBMCs incubated with apo- or holo-lipocalin allergens (FACS); format: cell-based, human; details: PBMCs pre-activated 24 h with PMA 0.75 ng/ml; allergen 100 μg/ml; holo = with catechol and iron; gated for CD3, 10000 CD3 cells recorded
Method: Cells were then stained for CD3-APC, CD8-PE, CD4-PE-CY7, 7AAD and Annexin V-FITC, gated for CD3 and analyzed by a FACS Canto II. Data acquisition was stopped when 10000 CD3 cells were recorded.
Apo-allergens were incubated with equimolar concentration of iron (ammonium iron (III) citrate, Sigma) and three-fold molar concentration of catechol, since 3 catechols are necessary for hexadental binding of iron in the LCN2-pocket against deionized water. Recombinant Bet v1a (Biomay, Vienna, Austria) was used as purchased
Blood was mixed with equal volumes of PBS containing 2% FCS before applying onto 10 ml Ficoll-Paque PLUS (GE Healthcare, Uppsala, Sweden), centrifugation at 400 g for 30 min without brake and washing the cells twice with 0,89% sodium chloride solution. Cells were then diluted to a concentration of 1Mio cells/ml in RPMI medium containing 10% FCS. Throughout the study FCS from the same lot was always used.
To PBMCs (0.5 Mio/test) a final concentration of 0.75 ng/ml PMA, 100 μg/ml apo-allergen (BLG, Alt a 1 and Bet v 1) with or without 10 μM catechol (Sigma) and 10 μM iron was added. For control purposes also tested without allergen or PMA. PMA each substance was determined in pre-experiments and considered concentration was optimal when cells were slightly downregulating surface CD4+ expression (7). […]

[3] = tested on: PMA-activated PBMCs; experiment: Cytokine content (IL13, IFN-γ) of supernatants of PMA-activated PBMCs stimulated with apo-/holo-allergens (ELISA); format: cell-based, human; details: PMA-activated PBMCs incubated for 18-24h; allergen 100 μg/ml with or without 10 μM catechol and 10 μM iron
Method: To PBMCs (0.5 Mio/test) a final concentration of 0.75 ng/ml PMA, 100 μg/ml apo-allergen (BLG, Alt a 1 and Bet v 1) with or without 10 μM catechol (Sigma) and 10 μM iron was added. For control purposes also tested without allergen or PMA. PMA each substance was determined in pre-experiments and considered concentration was optimal when cells were slightly downregulating surface CD4+ expression (7). After 18-24h supernatants were collected and stored at −80° ° C. until further analysis.
LCN2 and the cytokine levels of IL13 and IFNγ were detected with commercially available kits according to the manufacturers' protocol. Sera were diluted 1:100 before determining LCN2-levels, whereas supernatants of 18-24h stimulation were used undiluted. Sensitivity of LCN2 assay is about 75 pg/ml and kits were purchased from R&D Systems (Minneapolis, MN, USA), whereas ELISAs for human IL13 and IFNγ were from ebioscience (Santa Clara, CA, USA), both assays having a reported sensitivity of 4 pg/ml.

BLG: commercially available bovine beta-lactoglobulin, lipocalin allergen
Autofluorescence of the cavity (iron-binding) [1]: quenched

B1: apoBetv1: recombinant Bet v 1a birch allergen, used as purchased, without siderophore-iron (protein, UniProt P15494 2-160, looked up)
Major pollen allergen Bet v …: GVFNYETETTSVIPAARLFKAFILDGDNLFPKVAPQAISSVENIEGNGGPGTIKKISFPEGFPFKYVKDRVDEVDHTNFKYNYSVIEGGPIGDTLEKISNEIKIVATPDGGSILKISNKYHTKGDHEVKAEQVKASKEMGETLLRAVESYLLAHSDAYN
CD4 expression and survival [2]: increase | Th2-cytokines released upon stimulation (IL13 and IFN-γ analyzed) [3]: released

B2: holoBetv1: recombinant Bet v 1a incubated with equimolar iron and three-fold molar catechol (protein, UniProt P15494 2-160, looked up)
Major pollen allergen Bet v …: B1 Major pollen allergen Bet v …
modifications: iron and catechol complex
notes: recombinant Bet v 1a incubated with equimolar iron and three-fold molar catechol
CD4 expression and survival [2]: sharp contrast | Th2-cytokines released upon stimulation (IL13 and IFN-γ analyzed) [3]: not

B3: apo-Alt a 1: recombinant Alternaria alternata allergen Alt a 1, dialyzed against DFO, iron-free (protein, UniProt P79085 19-157, looked up)
Major allergen Alt a 1: APLESRQDTASCPVTTEGDYVWKISEFYGRKPEGTYYNSLGFNIKATNGGTLDFTCSAQADKLEDHKWYSCGENSFMDFSFDSDRSGLLLKQKVSDDITYVATATLPNYCRAGGNGPKDFVCQGVADAYITLVTLPKSS
Th2-cytokines released upon stimulation (IL13 and IFN-γ analyzed) [3]: released

B4: holo-Alt a 1: recombinant Alt a 1 incubated with equimolar iron and three-fold molar catechol (protein, UniProt P79085 19-157, looked up)
Major allergen Alt a 1: B3 Major allergen Alt a 1
modifications: iron and catechol bound
notes: recombinant Alt a 1 incubated with equimolar iron and three-fold molar catechol
Th2-cytokines released upon stimulation (IL13 and IFN-γ analyzed) [3]: not

Source: patent US12085574B2, “Method and means for diagnosing and treating allergy” (BIOMEDICAL INTERNATIONAL R+D GMBH, priority 2014, dated 2024)
